# Measurements from IntAct's records for PubMed 21441914.
# B1: Double-strand break repair protein rad32 (Schizosaccharomyces pombe (strain ATCC 38366 / 972)), Q09683 (parent)
# chain: MPNDPSDMNNELHNENTIRILISSDPHVGYGEKDPVRGNDSFVSFNEILEIARERDVDMILLGGDIFHDNKPSRKALYQALRSLRLNCLGDKPCELELLSDTSLTTGDTAVCNINYLDPNINVAIPVFSIHGNHDDPSGDGRYSALDILQVTGLVNYFGRVPENDNIVVSPILLQKGFTKLALYGISNVRDERLYHSFRENKVKFLRPDLYRDEWFNLLTVHQNHSAHTPTSYLPESFIQDFYDFVLWGHEHECLIDGSYNPTQKFTVVQPGSTIATSLSPGETAPKHCGILNITGKDFHLEKIRLRTVRPFIMKDIILSEVSSIPPMVENKKEVLTYLISKVEEAITEANAQWYEAQGTVPVVENEKPPLPLIRLRVDYTGGYQTENPQRFSNRFVGRVANATDVVQFYLKKKYTRSKRNDGLYTSAVEDIKINSLRVESLVNEYLKTNRLECLPEDSLGEAVVNFVEKDDRDAIKECVETQLNKQINLLVKKRVTEENLEQEISSIINDLPKISTTKRKDYEELPEEVSETSINIAEHTPVLKHTSSLLDHHSPLATSSSEHEMEATPSPALLKKTNKRRELPSSLTKKNTRTPQRSKEVKKVPARKLSQSTKKSDKNTQSTLLFYDPSSTTEAQYLDNEDDEILDD
# partner: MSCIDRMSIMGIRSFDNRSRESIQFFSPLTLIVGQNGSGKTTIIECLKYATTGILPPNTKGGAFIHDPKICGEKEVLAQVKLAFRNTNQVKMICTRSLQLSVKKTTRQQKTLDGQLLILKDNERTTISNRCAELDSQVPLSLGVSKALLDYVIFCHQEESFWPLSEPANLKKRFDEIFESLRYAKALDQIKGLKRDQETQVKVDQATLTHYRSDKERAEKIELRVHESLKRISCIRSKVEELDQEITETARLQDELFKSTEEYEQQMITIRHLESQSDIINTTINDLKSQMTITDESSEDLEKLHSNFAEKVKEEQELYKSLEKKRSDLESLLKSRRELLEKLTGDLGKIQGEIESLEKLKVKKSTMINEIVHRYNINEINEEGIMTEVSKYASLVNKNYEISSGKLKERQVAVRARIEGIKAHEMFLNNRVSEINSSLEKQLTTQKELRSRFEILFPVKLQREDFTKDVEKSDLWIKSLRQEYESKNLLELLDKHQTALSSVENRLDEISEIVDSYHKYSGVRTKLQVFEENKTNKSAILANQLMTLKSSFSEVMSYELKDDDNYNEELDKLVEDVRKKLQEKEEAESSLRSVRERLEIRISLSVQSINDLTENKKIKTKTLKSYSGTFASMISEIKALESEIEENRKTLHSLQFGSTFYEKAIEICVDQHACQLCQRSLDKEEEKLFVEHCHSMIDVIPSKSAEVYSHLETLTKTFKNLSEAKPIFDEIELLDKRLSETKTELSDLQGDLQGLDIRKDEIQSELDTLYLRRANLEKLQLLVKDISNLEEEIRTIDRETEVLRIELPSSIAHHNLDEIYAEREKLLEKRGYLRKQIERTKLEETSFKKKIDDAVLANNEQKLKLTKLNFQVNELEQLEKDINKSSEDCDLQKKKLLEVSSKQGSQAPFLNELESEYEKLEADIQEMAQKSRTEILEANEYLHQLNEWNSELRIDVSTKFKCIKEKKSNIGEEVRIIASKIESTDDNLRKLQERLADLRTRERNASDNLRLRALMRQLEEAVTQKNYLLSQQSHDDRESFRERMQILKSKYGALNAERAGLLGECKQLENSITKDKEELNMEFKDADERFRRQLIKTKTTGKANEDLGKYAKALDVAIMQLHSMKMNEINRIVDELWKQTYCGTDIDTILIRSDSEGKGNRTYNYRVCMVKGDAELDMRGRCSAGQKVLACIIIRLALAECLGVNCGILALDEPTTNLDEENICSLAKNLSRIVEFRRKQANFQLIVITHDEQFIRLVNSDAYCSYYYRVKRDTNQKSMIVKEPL
# Variants of: B1
# Settings: with rad50_schpo rad50, Q9UTJ8
row,Variant,effect of a mutation on the interaction
1,C454R;L455R,disrupting interaction
2,C454R;L455R;C479R;V480R,disrupting interaction
3,C479R;V480R,disrupting interaction
